Assay results: the supplement of paper PMC11246515
± gives the standard deviation of the averaged measurements.

Experiment: total protein half-life in vivo (active degradation + dilution); higher = more stable protein
[1] = E. coli NCM3722 delta-clpP delta-lon delta-hslV, growth: N-lim chemostat, doubling time 6 h
[2] = wild type E. coli NCM3722, growth: C-lim chemostat, doubling time 6 h
[3] = wild type E. coli NCM3722, growth: N-lim chemostat, doubling time 12 h
[4] = E. coli NCM3722 delta-clpP, growth: N-lim chemostat, doubling time 6 h
[5] = E. coli NCM3722 delta-hslV, growth: N-lim chemostat, doubling time 6 h
[6] = E. coli NCM3722 delta-lon, growth: N-lim chemostat, doubling time 6 h
[7] = E. coli NCM3722 delta-smpB, growth: N-lim chemostat, doubling time 6 h
[8] = wild type E. coli NCM3722, growth: C-lim chemostat, doubling time 3 h
[9] = wild type E. coli NCM3722, growth: N-lim chemostat, doubling time 6 h
[10] = wild type E. coli NCM3722, growth: P-lim chemostat, doubling time 6 h
[11] = wild type E. coli NCM3722, growth: P-lim chemostat, doubling time 12 h
[12] = wild type E. coli NCM3722, growth: C-lim chemostat, doubling time 12 h

Sequence: MKTKIPDAVLAAEVSRRGLVKTTAIGGLAMASSALTLPFSRIAHAVDSAIPTKSDEKVIWSACTVNCGSRCPLRMHVVDGEIKYVETDNTGDDNYDGLHQVRACLRGRSMRRRVYNPDRLKYPMKRVGARGEGKFERISWEEAYDIIATNMQRLIKEYGNESIYLNYGTGTLGGTMTRSWPPGNTLVARLMNCCGGYLNHYGDYSSAQIAEGLNYTYGGWADGNSPSDIENSKLVVLFGNNPGETRMSGGGVTYYLEQARQKSNARMIIIDPRYTDTGAGREDEWIPIRPGTDAALVNGLAYVMITENLVDQAFLDKYCVGYDEKTLPASAPKNGHYKAYILGEGPDGVAKTPEWASQITGVPADKIIKLAREIGSTKPAFISQGWGPQRHANGEIATRAISMLAILTGNVGINGGNSGAREGSYSLPFVRMPTLENPIQTSISMFMWTDAIERGPEMTALRDGVRGKDKLDVPIKMIWNYAGNCLINQHSEINRTHEILQDDKKCELIVVIDCHMTSSAKYADILLPDCTASEQMDFALDASCGNMSYVIFNDQVIKPRFECKTIYEMTSELAKRLGVEQQFTEGRTQEEWMRHLYAQSREAIPELPTFEEFRKQGIFKKRDPQGHHVAYKAFREDPQANPLTTPSGKIEIYSQALADIAATWELPEGDVIDPLPIYTPGFESYQDPLNKQYPLQLTGFHYKSRVHSTYGNVDVLKAACRQEMWINPLDAQKRGIHNGDKVRIFNDRGEVHIEAKVTPRMMPGVVALGEGAWYDPDAKRVDKGGCINVLTTQRPSPLAKGNPSHTNLVQVEKV
- total protein half-life in vivo [1]: 5.175 ± 0.011 h
- total protein half-life in vivo [2]: 5.91 h
- total protein half-life in vivo [3]: 6.94 h

Sequence: MRALLPYLALYKRHKWMLSLGIVLAIVTLLASIGLLTLSGWFLSASAVAGVAGLYSFNYMLPAAGVRGAAITRTAGRYFERLVSHDATFRVLQHLRIYTFSKLLPLSPAGLARYRQGELLNRVVADVDTLDHLYLRVISPLVGAFVVIMVVTIGLSFLDFTLAFTLGGIMLLTLFLMPPLFYRAGKSTGQNLTHLRGQYRQQLTAWLQGQAELTIFGASDRYRTQLENTEIQWLEAQRRQSELTALSQAIMLLIGALAVILMLWMASGGVGGNAQPGALIALFVFCALAAFEALAPVTGAFQHLGQVIASAVRISDLTDQKPEVTFPDTQTRVADRVSLTLRDVQFTYPEQSQQALKGISLQVNAGEHIAILGRTGCGKSTLLQQLTRAWDPQQGEILLNDSPIASLNEAALRQTISVVPQRVHLFSATLRDNLLLASPGSSDEALSEILRRVGLEKLLEDAGLNSWLGEGGRQLSGGELRRLAIARALLHDAPLVLLDEPTEGLDATTESQILELLAEMMREKTVLMVTHRLRGLSRFQQIIVMDNGQIIEQGTHAELLARQGRYYQFKQGL
- total protein half-life in vivo [1]: > 8 h
- total protein half-life in vivo [4]: 6.58 ± 0.21 h
- total protein half-life in vivo [5]: 6.08 ± 0.081 h
- total protein half-life in vivo [6]: 6.01 ± 0.34 h
- total protein half-life in vivo [7]: 5.928 ± 0.023 h
- total protein half-life in vivo [8]: 3.08 ± 0.092 h
- total protein half-life in vivo [2]: 5.92 ± 0.12 h
- total protein half-life in vivo [9]: 5.99 ± 0.31 h
- total protein half-life in vivo [3]: 11.7 ± 0.28 h
- total protein half-life in vivo [10]: 6.274 ± 0.058 h
- total protein half-life in vivo [11]: 12.3 ± 1.1 h

Sequence: MTAFSTLNVLPPAQLTNLNELGYLTMTPVQAAALPAILAGKDVRVQAKTGSGKTAAFGLGLLQQIDASLFQTQALVLCPTRELADQVAGELRRLARFLPNTKILTLCGGQPFGMQRDSLQHAPHIIVATPGRLLDHLQKGTVSLDALNTLVMDEADRMLDMGFSDAIDDVIRFAPASRQTLLFSATWPEAIAAISGRVQRDPLAIEIDSTDALPPIEQQFYETSSKGKIPLLQRLLSLHQPSSCVVFCNTKKDCQAVCDALNEVGQSALSLHGDLEQRDRDQTLVRFANGSARVLVATDVAARGLDIKSLELVVNFELAWDPEVHVHRIGRTARAGNSGLAISFCAPEEAQRANIISDMLQIKLNWQTPPANSSIATLEAEMATLCIDGGKKAKMRPGDVLGALTGDIGLDGADIGKIAVHPAHVYVAVRQAVAHKAWKQLQGGKIKGKTCRVRLLK
- total protein half-life in vivo [1]: 5.81 ± 1.4 h
- total protein half-life in vivo [4]: 2.58 h
- total protein half-life in vivo [2]: 3.78 h
- total protein half-life in vivo [12]: 8.81 ± 4.4 h
- total protein half-life in vivo [10]: 2.59 h

Sequence: MPRLLTKRGCWITLAAAPFLLFLAAWGADKLWPLPLHEVNPARVVVAQDGTPLWRFADADGIWRYPVTIEDVSPRYLEALINYEDRWFWKHPGVNPFSVARAAWQDLTSGRVISGGSTLTMQVARLLDPHPKTFGGKIRQLWRALQLEWHLSKREILTLYLNRAPFGGTLQGIGAASWAYLGKSPANLSYSEAAMLAVLPQAPSRLRPDRWPERAEAARNKVLERMAVQGVWSREQVKESREEPIWLAPRQMPQLAPLFSRMMLGKSKSDKITTTLDAGLQRRLEELAQNWKGRLPPRSSLAMIVVDHTDMRVRGWVGSVDLNDDSRFGHVDMVNSIRSPGSVLKPFVYGLALDEGLIHPASLLQDVPRRTGDYRPGNFDSGFHGPISMSEALVRSLNLPAVQVLEAYGPKRFAAKLRNVGLPLYLPNGAAPNLSLILGGAGAKLEDMAAAYTAFARHGKAGKLRLQPDDPLLERPLMSSGAAWIIRRIMADEAQPLPDSALPRVAPLAWKTGTSYGYRDAWAIGVNARYVIGIWTGRPDGTPVVGQFGFASAVPLLNQVNNILLSRSANLPEDPRPNSVTRGVICWPGGQSLPEGDGNCRRRLATWLLDGSQPPTLLLPEQEGINGIRFPIWLDENGKRVAADCPQARQEMINVWPLPLEPWLPASERRAVRLPPASTSCPPYGHDAQLPLQLTGVRDGAIIKRLPGAAEATLPLQSSGGAGERWWFLNGEPLTERGRNVTLHLTDKGDYQLLVMDDVGQIATVKFVMQ
- total protein half-life in vivo [1]: 5.44 h
- total protein half-life in vivo [4]: 6.31 ± 1.1 h
- total protein half-life in vivo [5]: 5.74 ± 0.091 h
- total protein half-life in vivo [6]: 5.64 ± 0.55 h
- total protein half-life in vivo [7]: 4.87 ± 1.3 h
- total protein half-life in vivo [8]: 3.04 h
- total protein half-life in vivo [12]: 11.2 h
- total protein half-life in vivo [9]: 5.98 h
- total protein half-life in vivo [3]: 13.92 ± 0.086 h
- total protein half-life in vivo [10]: 6.15 ± 2 h
- total protein half-life in vivo [11]: 9.01 ± 4 h

Sequence: MKYVDGFVVAVPADKKDAYREMAAKAAPLFKEFGALRIVECWASDVPDGKVTDFRMAVKAEENEEVVFSWIEYPSKEVRDAANQKMMSDPRMKEFGESMPFDGKRMIYGGFESIIDE [P0AAQ6]
- total protein half-life in vivo [1]: 4.294 ± 0.022 h
- total protein half-life in vivo [4]: 2.69 ± 0.41 h
- total protein half-life in vivo [5]: 3.26 ± 1.4 h
- total protein half-life in vivo [6]: 3.82 ± 0.1 h
- total protein half-life in vivo [7]: 1.51 ± 0.073 h
- total protein half-life in vivo [2]: 2.63 ± 0.71 h
- total protein half-life in vivo [12]: 2.54 ± 0.65 h
- total protein half-life in vivo [9]: 2.14 h
- total protein half-life in vivo [3]: 2.62 ± 0.04 h
- total protein half-life in vivo [10]: 3.082 ± 0.03 h
- total protein half-life in vivo [11]: 6.13 ± 0.85 h

Sequence: MALLDFFLSRKKNTANIAKERLQIIVAERRRSDAEPHYLPQLRKDILEVICKYVQIDPEMVTVQLEQKDGDISILELNVTLPEAEELK [P0A734]
- total protein half-life in vivo [1]: 5.76 ± 0.51 h
- total protein half-life in vivo [4]: 4.57 ± 0.13 h
- total protein half-life in vivo [6]: 3.791 ± 0.018 h
- total protein half-life in vivo [7]: 4.06 ± 0.14 h
- total protein half-life in vivo [8]: 2.736 ± 0.016 h
- total protein half-life in vivo [2]: 4.59 ± 0.27 h
- total protein half-life in vivo [12]: 6.36 ± 0.066 h
- total protein half-life in vivo [9]: 3.626 ± 0.022 h
- total protein half-life in vivo [3]: 6.22 ± 0.13 h
- total protein half-life in vivo [10]: 4.14 ± 1.5 h
- total protein half-life in vivo [11]: 8.17 ± 0.36 h
